Measured values: patent publication US20230304022

Tests used:
Experiment in all cases: cell_activity
[1] = system: Gin-Pth15Δ120 (synthetic repeats) (synthetic); details: E. coli
[2] = system: Gin-AvrXa7 Δ128 (synthetic); details: E. coli
[3] = system: Gin-Avr15Δ120 (synthetic repeats) (synthetic); details: for activity (fold luciferase reduction): HEK293T
[4] = system: TALEN A1 NT-αN (synthetic); details: HeLa; pair A1/A2
[5] = system: TALEN C2 NT-αN (synthetic); details: HeLa; pair C1/C2
[6] = system: GinC4 zinc finger recombinase (synthetic); details: HEK293T; 107-fold in p263
[7] = system: TALEN A2 NT-αN (synthetic); details: HeLa; pair A1/A2
[8] = system: GinC4 + Gin-Avr15Δ120 heterodimer (synthetic); details: HEK293T; ZFR-TALER heterodimer

For “GTGGTGTACAGTAGGGGGAGATGCAGCTGCTTCCAAAACCATGGTTTACAGGGTGGTTGCATCTCCCCCTACTGTACACCAC (double strand) [PthXo1-32G]”, the activity (fold over non-cognate site) [1] was > 600, the activity (fold less than cognate) ([2]; non-cognate TALE site) was > 100 and the activity (fold less than cognate site) ([3]; E. coli) was > 600.
In the case of “CCTGCAGCTCTCATTTT (double strand) [TALEN A1 half-site]”, the activity (fold over NT-T) [4] is reported as 9.
With “CAGAATTGATACTGACT (double strand) [TALEN C2 half-site]” the activity (fold over NT-T) [5] was 2.
In the case of “TTAGCACCTGGTTGGAGGGGGTTTATAGCTTCATCCAAAACCATGGTTTACAGGGTTCCTATAAACCCCCTCCAACCAGGTGCTAA (double strand) [Avr32G]”, the activity (fold less than cognate site) [1] is reported as > 600 and the activity (fold luciferase reduction) [3] is reported as 6.
“GCGGGAGGCGTGTCCAAAACCATGGTTTACAG (double strand) [C4-20G (C4 zinc finger site flanking Gin core)]” was tested, and the activity (fold luciferase reduction) [6] was > 80.
“ATTCTTCCAGAATTGA (double strand) [TALEN A2 half-site]” gave an activity (fold over NT-T) [7] of 9.
In the case of “GCGGGAGGCGTGTCCAAAACCATGGTTTACAGGGTTCCTATAAACCCCCTCCAACCAGGTGCTAA (double strand) [Avr-G-ZF hybrid site]”, the activity (fold luciferase reduction) [8] is reported as > 140.
“TTAGCACCTGGTTGGAGGGGGTTTATAGCTTCACGAAATATTATAAATTATCAGGTTCCTATAAACCCCCTCCAACCAGGTGCTAA (double strand) [Avr32T]” was tested, and the activity (fold less than cognate) [2] was > 100 and the activity (fold less than cognate core) ([3]; E. coli) was > 1000.
In the case of “TTAGCACCTGGTTGGAGGGGGTTTATAGCTTCATCCAAAACCGGGGTTTACAGGGTTCCTATAAACCCCCTCCAACCAGGTGCTAA (double strand) [Avr32GG]”, the activity (fold less than cognate) [2] is reported as > 100.
“TTAGCACCTGGTTGGAGGGGGTTTATAGCTTCAGCTTCATCCAAAACCATGGTTTACAGGGTTCCGGTTCCTATAAACCCCCTCCAACCAGGTGCTAA (double strand) [Avr44G]” showed an activity (fold luciferase reduction) [3] of 20.
